B1: Drp1-specific nanobody D7 (VHH)
VHH: QVQLVESGGGLVQPGGSLRLSCVASGFDFSTYSMTWHRQVLGKERELVASITPGGSRTNVADSVKGRFTISRDNAKNMLYLQMDRLKPEDTGMYYCAQGGYYAEPDYWGKGTRVTVSS
modifications: biotinylated for BLI (site not stated); covalently immobilised on NHS-activated sepharose via primary amino groups of accessible lysines for the nanotrap
B2: Drp1-specific nanobody D63 (VHH)
VHH: QVQLVESGGDLVQPGGSLKLSCAVSGVSDSLSSFYLMAWHRQAPGKQREMIADIVSGKATYADSVKGRFTISRDNAENTAYLQMNSLKPEDTAVYYCNVLIQNRSTFQSYWGQGTQVTVSS
modifications: biotinylated for BLI (site not stated); covalently immobilised on NHS-activated sepharose via primary amino groups of accessible lysines for the nanotrap

Biological target: recombinant human dynamin-related protein 1 (Drp1), isoform 1 (human, UniProt O00429 1-736)
Sequence (O00429 whole entry, canonical isoform): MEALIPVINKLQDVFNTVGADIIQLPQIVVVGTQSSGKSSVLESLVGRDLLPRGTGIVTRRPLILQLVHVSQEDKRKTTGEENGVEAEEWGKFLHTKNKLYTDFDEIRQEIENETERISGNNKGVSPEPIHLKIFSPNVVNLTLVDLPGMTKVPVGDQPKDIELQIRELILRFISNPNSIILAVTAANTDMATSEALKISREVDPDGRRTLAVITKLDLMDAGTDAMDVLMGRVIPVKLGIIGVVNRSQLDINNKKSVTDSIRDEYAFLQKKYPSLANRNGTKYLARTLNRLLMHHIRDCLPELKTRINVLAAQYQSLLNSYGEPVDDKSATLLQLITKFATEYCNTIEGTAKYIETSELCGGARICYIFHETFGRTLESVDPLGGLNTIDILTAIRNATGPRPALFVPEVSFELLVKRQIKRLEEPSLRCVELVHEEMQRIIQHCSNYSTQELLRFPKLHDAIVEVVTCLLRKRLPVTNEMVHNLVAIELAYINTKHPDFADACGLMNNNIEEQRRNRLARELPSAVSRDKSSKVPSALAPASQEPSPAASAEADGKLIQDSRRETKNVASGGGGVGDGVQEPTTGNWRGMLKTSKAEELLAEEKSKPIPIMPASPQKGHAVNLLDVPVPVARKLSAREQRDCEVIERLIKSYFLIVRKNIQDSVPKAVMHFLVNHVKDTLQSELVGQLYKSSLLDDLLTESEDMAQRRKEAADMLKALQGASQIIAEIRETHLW
Experiment: BLI

Binder	koff [s⁻¹]
B1	0.000117
B2	0.000227
